Measured values reported in patent publication US7214663B2, “Tripeptide prodrug compounds” (Medarex, Inc., priority 2001, dated 2007).
Like-named read-outs stand apart in the source and are kept apart here.

Key:
[1] = Comparative metabolism in mice, plasma AUC
Description: (§3) Plasma was obtained from three individual animals in each group at 5 minutes, 1, 2, 4, or 6 hr.

[2] = system: HT-29 (colon carcinoma) cells; conditions: HT29, 48 hours, 3H-thymidine incorporation
Description: (§1) Adherent cells, LNCaP (prostate carcinoma), HT-29 (colon carcinoma) and PC-3 (prostate carcinoma), were cultured in DMEM media containing 10% heat inactivated fetal calf serum (FCS). On the day of the study the cells were detached from the plate with a trypsin solution. The collected cells were washed and resuspended at a concentration of 0.25×10^6 cells/ml in DMEM containing 10% FCS. 100 μl of cell suspension were added to 96 well plates and the plates were incubated for 3 hours to allow the cells to adhere. […] The plates were then incubated for 24 hours, pulsed with 10 μl of a 100 μCi/ml ^3H-thymidine and incubated for an additional 24 hours (total incubation time 48 hours). The plates were harvested using a 96 well Harvester (Packard Instruments) and counted on a Packard Top Count Counter. Four parameter logistic curves were fitted to the ^3H-thymidine incorporation as a function of drug molarity using Prism software to determine IC50 values.
(§2) Prostate carcinoma cells, LNCaP and PC-3 cells or colon carcinoma cells HT-29, were incubated with increasing concentration of the indicated compounds for 48 hours and cellular proliferation was measured using the ^3H-thymidine assay.

[3] = system: PC-3 (prostate carcinoma) cells; conditions: PC-3, 48 hours, 3H-thymidine incorporation
Description: as §1, §2

[4] = system: LNCaP (prostate carcinoma) cells; conditions: 48 hours, 3H-thymidine incorporation
Description: as §1, §2

[5] = SD-MTD studies, 60 days, normal mice (Example 14); conditions: mouse, in vivo
Description: In the single dose Maximum Tolerated Dose (SD-MTD) studies, groups of normal mice were administered intravenous bolus doses of the prodrug. The mice were observed daily for 60 days and body weights measured twice weekly. The SD-MTD was estimated to be equal to the highest dose that produced no death in mice after 60 days.

[6] = Metabolism and clearance of Suc-Met-Ala-Leu-Dox in mice (plasma, urine); assay type: in vivo, mouse; conditions: mouse, in vivo, iv, 120 mg/kg
Description: Plasma samples were obtained at 1 or 4 hours, and urine was collected at 2 and 24 hours post administration. Levels of the prodrug and metabolites were measured by LC-MS with UV detection of doxorubicin.

[7] = mouse, in vivo
[8] = system: HeLa cell anion exchange fraction (F1), trouase; experiment: Relative cleavage by HeLa cell anion exchange fraction (F1) versus Suc-βAla-Leu-Ala-Leu standard; assay type: biochemical, human
Description: Thirty billion commercially produced HeLa Cells (human cervical carcinoma, Computer Cell Culture Ceizter, Seneffe, Belgium) were homogenized with a sonicator and with a Dounce homogenizer in 108 mL of aqueous lysis solution. The lysis solution contained 0.02% w/v Triton X-100, 0.04% w/v sodium azide, and a cocktail of protease inhibitors (2 tablets/50 mL Complete™, EDTA-free tablets, Roche Molecular Biochemicals). The cell homogenate was centrifuged 30 minutes at 4° C. at 5000×g and the pellet was homogenized in a second 108 mL of lysis solution using a Dounce homogenizer and centrifuged as before. The supernatants were combined and centrifuged for 90 min at 145,000×g at 4° C.
A portion of the ultracentrifugation supernatant was diluted 2-fold with a 20 mM triethanolamine-HCl pH 7.2 buffer containing 0.01% (w/v) Triton X-100 and 0.02% (w/v) sodium azide (equilibration buffer). Thirty mL of the resulting solution, corresponding to approximately 180 mg of protein, was loaded at 4° C. on a 2.6×9.4 cm Source™ 15Q (Amersham Pharmacia Biotech) low pressure anion exchange chromatography column (1 ml/minute). The column was then washed with 250 ml of the equilibration buffer at a flow rate of 1 mL/minute. Proteins were eluted in a NaCl linear concentration gradient (0–0.5 M in the equilibration buffer, total volume of the gradient was 1000 ml) at a flow rate of 3 ml/minute. Two-minute fractions were collected and used for enzyme activity determination using βAla-Leu-Ala-Leu-Dox as the substrate. Its transformation into Ala-Leu-Dox was quantified by reverse phase high performance liquid chromatography utilizing fluorescence detection of the anthracycline moiety. The fractions containing the highest activity levels were pooled (fractions #43–46; ˜0.13 M NaCl), supplemented with protease inhibitors (Complete™, EDTA-free tablets, Roche Molecular Biochemicals), and stored as aliquots at −80° C.
Test compounds were incubated for 2 hr at 37° C. at a concentration of 12.5 μg/mL with HeLa cell anion exchange fraction (F1), as prepared in Example 1(c). Following incubation, three volumes of acetonitrile were added to stop the reaction and remove protein from the mixture. The sample was centrifuged at 18,000 g for 5 minutes and 100 μL of supernatant was mixed with 300 μL of water prior to analysis by HPLC. For HPLC analysis 50 μL of sample was injected on a 4.6×50 mm 2μ TSK Super-ODS chromatography column at 40° C. and eluted with a 3 minute linear gradient from 26% to 68% acetonitrile in aqueous 20 mM ammonium acetate pH 4.5 buffer at 2 mL/min. Detection was by fluorescence using an excitation wavelength of 235 nm and an emission wavelength of 560 nm.
the amount of cleavage of each test compound was compared to the amount of a standard Suc-βAla-Leu-Ala-Leu-therapeutic agent conjugate cleaved by F1 under the same conditions. The therapeutic agent in the standard (Dox or Dnr) was the same as in the test compound. Table 3 provides the relative cleavage rates of several tripeptide prodrugs.

[9] = system: healthy young female normal mice; conditions: Example 7
[10] = Repeat-dose tolerability / repeat dose MTD in tumor bearing mice; assay type: in vivo, mouse; conditions: mouse, in vivo, Table 12, re-analyzed
Description: In one study, one animal in each dose group (n=8) was terminated as a possible drug-related toxicity death late in the study, at Days 58 and 57 in the low and high dose-groups respectively. The safety of the compound was evidenced by little body weight loss in either the high or low dose groups (less than 5% of the initial weight) during the 60-day observation period, in surviving animals (FIG. 14). In the other study, both the high and low dose were well tolerated. Only one animal in the high dose group (n=10) had over 15% of body weight loss at the end of the study (Day 61).
In repeat-dose studies in tumor bearing mice, groups of ten mice were dosed with various amounts of prodrug for a total of five doses at either five day or 1 week intervals. […] Thus, the prodrugs permit a much greater amount of therapeutic agent to be delivered to the body as a whole and thus to the vicinity of the target cell.

[11] = in vivo; conditions: female, ICR, mouse, iv, 100 umol/kg
Description: as §3

[12] = single IV bolus approximately 100 μmol/Kg, ICR mice
[13] = intravenous, SD MTD (mg/kg), value in parentheses (doxorubicin equivalent dose), Table 11, doses as first stated
[14] = intravenous, SD MTD (mg/kg), value in parentheses: doxorubicin equivalent dose, Table 12, re-analyzed data and new data
[15] = intravenous, Table 12, re-analyzed data and new data, read-out: SD MTD
[16] = iv, Table 11, doses as first stated, intravenous bolus, 60 days, read-out: SD MTD

CC[C@H](C)[C@H](NC(=O)CCC(=O)O)C(=O)N[C@@H](C)C(=O)N[C@@H](CC(C)C)C(=O)N[C@H]1C[C@H](O[C@H]2C[C@](O)(C(=O)CO)Cc3c(O)c4c(c(O)c32)C(=O)c2c(OC)cccc2C4=O)O[C@@H](C)[C@H]1O [Suc-Ile-Ala-Leu-Dox]
AUC ([1]; female, ICR, mouse, in vivo, iv, 100 umol/kg): 452 µM·h | Dox, area under the plasma concentration time curve ([1]; single IV bolus approximately 100 μmol/Kg of prodrug, ICR mice): 0.9 µM·h | AL-Dox or AG-DOX, area under the plasma concentration time curve [1, 12]: 1.0 µM·h | L-Dox or G-Dox, area under the plasma concentration time curve [1, 12]: 6.2 µM·h | IC50 [2]: 47 µM | IC50 [3]: 88 µM | IC50 [4]: 1.1 µM

COc1cccc2c1C(=O)c1c(O)c3c(c(O)c1C2=O)C[C@@](O)(C(=O)CO)C[C@@H]3O[C@H]1C[C@H](NC(=O)[C@H](CC(C)C)NC(=O)[C@H](Cc2ccc(O)cc2)NC(=O)[C@H](CC(C)C)NC(=O)CCC(=O)O)[C@H](O)[C@H](C)O1 [Suc-Leu-Tyr-Leu-Dox]
IC50 [2]: 42 µM | IC50 [3]: 51 µM | IC50 [4]: 9.4 µM | MTD at 60 day [5, 13]: > 70 mg/kg | MTD at 60 day [5, 14]: > 70 mg/kg | MTD at 60 day [5, 15]: > 128 mg/kg | MTD at 60 day [5, 16]: > 128 mg/kg

COc1cccc2c1C(=O)c1c(O)c3c(c(O)c1C2=O)C[C@@](O)(C(=O)CO)C[C@@H]3O[C@H]1C[C@H](NC(=O)[C@H](CC(C)C)NC(=O)[C@H](C)NC(=O)[C@H](CCSC)NC(=O)CCC(=O)O)[C@H](O)[C@H](C)O1 [Suc-Met-Ala-Leu-Dox]
Plasma 4 hr, percent of administered dose [6]: ~0.001% | Urine 2 hr, percent of administered dose [6]: 6.6% | MTD at 28 day ([7]; intravenous): ~40 mg/kg | MTD at 28 day ([7]; iv): ~71 mg/kg | Relative Cleavage % ([8]; 2 hr at 37° C., 12.5 μg/mL, HeLa F1, relative to Suc-βAla-Leu-Ala-Leu-(Dox or Dnr) standard): 49% | Relative Rate of Cleavage ([8]; relative to Suc-βAla-Leu-Ala-Leu-Dox = 100 (Tables 11 and 12)): 49 | dose of doxorubicin at single dose MTD, fold higher than with doxorubicin alone [9]: about 1.5 fold | acute signs of toxicity ([9]; single intravenous 24-120 mg/kg): no acute signs of toxicity | MTD at 60 day [5, 13]: 42 mg/kg | MTD at 60 day [5, 14]: 42 mg/kg | MTD at 60 day [5, 15]: 70 mg/kg | MTD at 60 day [5, 16]: 70 mg/kg

COc1cccc2c1C(=O)c1c(O)c3c(c(O)c1C2=O)C[C@@](O)(C(=O)CO)C[C@@H]3O[C@H]1C[C@H](NC(=O)[C@H](CC(C)C)NC(=O)[C@H](C)NC(=O)[C@H](CC(C)C)NC(=O)CCNC(=O)CCC(=O)O)[C@H](O)[C@H](C)O1 [Suc-βAla-Leu-Ala-Leu-Dox, reference compound]
MTD ([10]; Repeat Dose MTD (mg/kg), value in parentheses: doxorubicin equivalent dose, Q 5 D × 5 or Q 7 D × 5): 32 mg/kg | MTD ([10]; Q 5 D × 5 or Q 7 D × 5 as given per compound, read-out: Repeat Dose MTD): 57 mg/kg | AUC [11]: 806 µM·h | MTD ([5]; SD MTD (mg/kg), value in parentheses (doxorubicin equivalent dose), Table 11, doses as first stated): 42 mg/kg | MTD ([5]; SD MTD (mg/kg), value in parentheses: doxorubicin equivalent dose, Table 12, re-analyzed data and new data): 28 mg/kg | MTD ([5]; Table 12, re-analyzed data and new data, read-out: SD MTD): 50 mg/kg | MTD [5, 16]: 75 mg/kg
